Source: patent publication US20040018971A1 (published 2004)

Experiments:
HLA-A*1101 [1] = biological target: T1, HLA-A*1101 (human); assay: competition with 125I-labelled standard peptide for purified HLA, gel filtration
T1 construct: The construct is not described

HLA-A*0301 [2] = biological target: T2, HLA-A*0301 (human); assay: as above
T2 construct: also called A3

HLA-DRB1*0101 = biological target: T3, HLA-DRB1*0101 (human); assay: competition with 125I probe peptide, purified HLA
T3 construct: also called DR1

HLA-A*0101 = biological target: T4, HLA-A*0101 (human); assay: inhibition of 125I-labeled probe peptide binding to purified HLA-A*0101, gel filtration
T4 construct: also called HLA-A1

HLA-A*0301 [3] = biological target: T5, HLA-A*0301 (human); assay: inhibition of 125I-labelled standard peptide 941.12 binding to purified HLA-A*0301, gel filtration
T5 construct: also called HLA-A3

[4] = biological target: T6, HLA-A*0301 (purified HLA class I molecule) (human); assay: inhibition of 125I probe peptide binding to purified HLA; ratio to standard peptide; minus sign not explained
T6 construct: also called A3

[5] = biological target: HLA-A*1101 (purified HLA class I molecule) (human); assay: inhibition of 125I probe peptide binding to purified HLA; ratio to standard peptide
HLA-A*0301 [6] = biological target: HLA-A*0301 (human); assay: inhibition of 125I-labelled standard peptide binding to purified HLA, gel filtration
HLA-A*3101 = HLA-A*3101 (human); assay: as above
HLA-A*1101 [7] = biological target: HLA-A*1101 (human); assay: as above
HLA-A*6801 = HLA-A*6801 (human); assay: as above
HLA-A*3301 = HLA-A*3301 (human); assay: as above
HLA-A*0301 [8] = biological target: T7, HLA-A*0301 (human); assay: competition with 125I-labelled probe peptide for purified HLA-A*0301, gel filtration; ratio to standard peptide 941.12
T7 construct: also called HLA-A3

B1: HER2/neu peptide, position 739, 9 amino acids (peptide)
peptide: WIPDGENVK
notes: Synthetic peptide; also called Her2/neu.739 (9-mer)
- relative binding ratio (HLA-A*1101 [1]): 0.0001 ratio (IC50 of standard peptide / IC50 of test peptide)
- relative binding ratio (HLA-A*0301 [2]): 0.0002 ratio (IC50 of standard peptide / IC50 of test peptide)

Binder: GTDMKLRLPASPETH [Her2/neu.28]
- IC50 (HLA-DRB1*0101): 5000 nM

Binder: LTSIISAVVGILLVV [Her2/neu.651]
- IC50 (HLA-DRB1*0101): 26 nM

B2: HER2/neu peptide, position 129, 10 amino acids (peptide)
peptide: VTGASPGGLR
notes: Synthetic peptide; also called Her2/neu.129 (10-mer)
- relative binding ratio (HLA-A*1101 [1]): 0.0005 ratio (IC50 of standard peptide / IC50 of test peptide)
- relative binding ratio (HLA-A*0301 [2]): 0.0002 ratio (IC50 of standard peptide / IC50 of test peptide)

Binder: VFETLEEITGY (HER2/neu peptide) [Her2/neu.399]
- IC50 (HLA-A*0101): 5560 nM

Binder: ETHLDMLRHLY (HER2/neu peptide) [Her2/neu.40]
- IC50 (HLA-A*0101): 89 nM

Binder: PLQRLRIVR [HER2/neu peptide, position 95, 9 amino acids]
- relative binding ratio (IC50 of standard peptide / IC50 of test peptide) (HLA-A*0301 [3]): 0.0002 ratio

Binder: PTDCCHEQCAA (HER2/neu peptide, 11-mer) [Her2/neu.232]
- IC50 (HLA-A*0101): 58 nM

B3: HER2/neu peptide, position 959, 10 amino acids (peptide)
peptide: WMIDSECRPR
notes: Synthetic peptide; also called Her2/neu.959 (10-mer)
- relative binding ratio (HLA-A*1101 [1]): 0.0002 ratio (IC50 of standard peptide / IC50 of test peptide)
- relative binding ratio (HLA-A*0301 [2]): -0.0002 ratio (IC50 of standard peptide / IC50 of test peptide)

Binder: FSRMARDPQR (also called Her2/neu.976 (10-mer)) [HER2/neu peptide, position 976, 10 amino acids]
- relative binding ratio [4]: -0.0002 ratio (IC50 standard / IC50 test)
- relative binding ratio [5]: 0.001 ratio (IC50 standard / IC50 test)

Binder: RILKETELRK (Synthetic A3 supermotif peptide) [HER2/neu peptide, position 713, 10 amino acids]
- relative binding ratio (HLA-A*0301 [6]): 0.057 ratio (IC50 of standard peptide / IC50 of test peptide)
- relative binding ratio (HLA-A*3101): 0.0055 ratio (IC50 of standard peptide / IC50 of test peptide)
- relative binding ratio (HLA-A*1101 [7]): 0.11 ratio (IC50 of standard peptide / IC50 of test peptide)
- relative binding ratio (HLA-A*6801): 0.0002 ratio (IC50 of standard peptide / IC50 of test peptide)
- relative binding ratio (HLA-A*3301): 0.0013 ratio (IC50 of standard peptide / IC50 of test peptide)

Binder: SVFQNLQVIR (Synthetic A3 supermotif peptide) [HER2/neu peptide, position 423, 10 amino acids]
- relative binding ratio (HLA-A*0301 [6]): 0.017 ratio (IC50 of standard peptide / IC50 of test peptide)
- relative binding ratio (HLA-A*3101): 0.034 ratio (IC50 of standard peptide / IC50 of test peptide)
- relative binding ratio (HLA-A*1101 [7]): 0.075 ratio (IC50 of standard peptide / IC50 of test peptide)
- relative binding ratio (HLA-A*6801): 0.25 ratio (IC50 of standard peptide / IC50 of test peptide)
- relative binding ratio (HLA-A*3301): 0.039 ratio (IC50 of standard peptide / IC50 of test peptide)

Binder: DSECRPRFR (Synthetic peptide) [HER2/neu peptide, position 962, 9 amino acids (DSECRPRFR)]
- relative binding ratio (IC50 of standard peptide / IC50 of test peptide) (HLA-A*0301 [8]): -0.0002 ratio

Binder: QVCTGTDMK [HER2/neu peptide, position 24, 9 amino acids]
- relative binding ratio (IC50 of standard peptide / IC50 of test peptide) (HLA-A*0301 [3]): 0.0007 ratio

Binder: GTDLFEDNY (HER2/neu analog peptide) [Her2/neu.104.D3]
- IC50 (HLA-A*0101): 0.9 nM

Binder: ESMPNPEGR (Synthetic peptide) [HER2/neu peptide, position 280, 9 amino acids (ESMPNPEGR)]
- relative binding ratio (IC50 of standard peptide / IC50 of test peptide) (HLA-A*0301 [8]): 0.0003 ratio

B4: HER2/neu peptide, position 835, 10 amino acids (peptide)
peptide: YLEDVRLVHR
notes: Synthetic peptide; also called Her2/neu.835 (10-mer)
- relative binding ratio (HLA-A*1101 [1]): 0.0001 ratio (IC50 of standard peptide / IC50 of test peptide)
- relative binding ratio (HLA-A*0301 [2]): 0.0003 ratio (IC50 of standard peptide / IC50 of test peptide)

Binder: PSGVKPDLSY [HER2/neu peptide, position 601, 10 amino acids]
- relative binding ratio (IC50 of standard peptide / IC50 of test peptide) (HLA-A*0301 [3]): 0.0003 ratio

Binder: EVTAEDGTQR (Synthetic peptide) [HER2/neu peptide, position 321, 10 amino acids (EVTAEDGTQR)]
- relative binding ratio (IC50 of standard peptide / IC50 of test peptide) (HLA-A*0301 [8]): 0.0002 ratio

Binder: PASPLDSTFY [HER2/neu peptide, position 996, 10 amino acids]
- relative binding ratio (IC50 of standard peptide / IC50 of test peptide) (HLA-A*0301 [3]): 0.0003 ratio

Binder: GAMPNQAQMR (also called Her2/neu.704 (10-mer)) [HER2/neu peptide, position 704, 10 amino acids]
- relative binding ratio [4]: -0.0002 ratio (IC50 standard / IC50 test)
- relative binding ratio [5]: 0.0041 ratio (IC50 standard / IC50 test)

Binder: ELMTFGAKPY (Synthetic peptide) [HER2/neu peptide, position 914, 10 amino acids (ELMTFGAKPY)]
- relative binding ratio (IC50 of standard peptide / IC50 of test peptide) (HLA-A*0301 [8]): 0.0002 ratio

B5: HER2/neu peptide, position 83, 10 amino acids (peptide)
peptide: YVLIAHNQVR
notes: Synthetic peptide; also called Her2/neu.83 (10-mer)
- relative binding ratio (HLA-A*1101 [1]): 0.0013 ratio (IC50 of standard peptide / IC50 of test peptide)
- relative binding ratio (HLA-A*0301 [2]): 0.0043 ratio (IC50 of standard peptide / IC50 of test peptide)

Binder: HTDMLRHLY (HER2/neu analog peptide) [Her2/neu.42.T2]
- IC50 (HLA-A*0101): 1.9 nM

Binder: PLPSETDGY [HER2/neu peptide, position 1119, 9 amino acids]
- relative binding ratio (IC50 of standard peptide / IC50 of test peptide) (HLA-A*0301 [3]): 0.0002 ratio

Binder: GAGGMVHHR (also called Her2/neu.1038 (9-mer)) [HER2/neu peptide, position 1038, 9 amino acids]
- relative binding ratio [4]: -0.0002 ratio (IC50 standard / IC50 test)
- relative binding ratio [5]: 0.0043 ratio (IC50 standard / IC50 test)

Binder: NVKIPVAIK (Synthetic A3 supermotif peptide) [HER2/neu peptide, position 745, 9 amino acids]
- relative binding ratio (HLA-A*0301 [6]): 0.0058 ratio (IC50 of standard peptide / IC50 of test peptide)
- relative binding ratio (HLA-A*3101): 0.0015 ratio (IC50 of standard peptide / IC50 of test peptide)
- relative binding ratio (HLA-A*1101 [7]): 0.0007 ratio (IC50 of standard peptide / IC50 of test peptide)
- relative binding ratio (HLA-A*6801): 0.12 ratio (IC50 of standard peptide / IC50 of test peptide)
- relative binding ratio (HLA-A*3301): 0.082 ratio (IC50 of standard peptide / IC50 of test peptide)
